{"source": "patent US20150086555A1", "binders": {"B1": {"name": "TCN-541 (5062_M11) (antibody, V domains shown)", "VH": "QVQLQESGPGLVKPSETLSLTCTVSGGSINSYYWNWIRQPPGKGLEWIGYIYHSGSTNYNPSLKSRVTISVDTSKNQFSLQLSSVTAADTAVYYCARLRTDYGDPDSVYYYGMDVWGQGTTVTVSS", "VL": "SYELTQPPSVSVSPGQTARITCSGDALPKQNAYWYQQKPGQAPVLLIYKDSERPSGIPERFSGSSSGTTVTLTISGVQAEDEADYYCQSADSSGTSWVFGGGTKLTVL"}}, "conditions_in_all_cases": "remark: other sources report otherwise", "key": {"[1]": {"target": "recombinant soluble homotrimeric HA of A/Indonesia/5/05 (H5N1) (Influenza A virus A/Indonesia/5/2005(H5N1))", "test": "HA microarray, BCC supernatant"}, "[2]": {"target": "T1, recombinant soluble homotrimeric HA of A/Vietnam/1203/04 (H5N1) (Influenza A virus A/VietNam/1203/2004(H5N1))", "test": "HA microarray, BCC supernatant"}, "[3]": {"target": "recombinant soluble homotrimeric HA of A/Wisconsin/67/05 (H3N2) (Influenza A virus A/Wisconsin/67/2005(H3N2))", "test": "HA microarray, BCC supernatant"}, "[4]": {"target": "recombinant homotrimeric HA A/Anhui/1/05 H5N1 (Influenza A virus A/Anhui/1/2005(H5N1))", "test": "protein microarray, purified IgG, trimeric HA"}, "[5]": {"target": "recombinant homotrimeric HA A/California/4/09 H1N1 (Influenza A virus A/California/04/2009(H1N1))", "test": "protein microarray, purified IgG, trimeric HA"}, "[6]": {"target": "recombinant homotrimeric HA A/Egypt/3300-NAMRU3/08 H5N1 (Influenza A virus A/Egypt/3300-NAMRU3/2008(H5N1))", "test": "protein microarray, purified IgG, trimeric HA"}, "[7]": {"target": "recombinant homotrimeric HA A/Hong Kong/2108/03 H9N2 (Influenza A virus A/HK/2108/2003(H9N2))", "test": "protein microarray, purified IgG, trimeric HA"}, "[8]": {"target": "recombinant homotrimeric HA A/Indonesia/5/05 H5N1 (Influenza A virus A/Indonesia/5/2005(H5N1))", "test": "protein microarray, purified IgG, trimeric HA"}, "[9]": {"target": "recombinant homotrimeric HA A/Japan/305/57 H2N2 (Influenza A virus A/Japan/305/1957(H2N2))", "test": "protein microarray, purified IgG, trimeric HA"}, "[10]": {"target": "recombinant homotrimeric HA A/South Carolina/1/18 H1N1 (Influenza A virus A/South Carolina/1/18 (H1N1))", "test": "protein microarray, purified IgG, trimeric HA"}, "[11]": {"target": "recombinant homotrimeric HA A/Vietnam/1203/04 H5N1 (Influenza A virus A/VietNam/1203/2004(H5N1))", "test": "protein microarray, purified IgG, trimeric HA"}, "[12]": {"target": "recombinant homotrimeric HA A/duck/Yangzhou/02/05 H8N4 (Influenza A virus A/duck/Yangzhou/02/2005(H8N4))", "test": "protein microarray, purified IgG, trimeric HA"}, "[13]": {"target": "recombinant soluble homotrimeric HA of A/South Carolina/1/18 (H1N1) (Influenza A virus A/South Carolina/1/18 (H1N1))", "test": "trimeric HA microarray, transfection supernatant set 5"}, "[14]": {"target": "T1, recombinant soluble homotrimeric HA of …", "test": "trimeric HA microarray, transfection supernatant set 5"}, "[15]": {"target": "recombinant soluble homotrimeric HA of A/chicken/Vietnam/NCVD-016/08 (H5N1) (Influenza A virus A/chicken/Vietnam/NCVD-016/2008(H5N1))", "test": "trimeric HA microarray, transfection supernatant set 5"}}, "data": [{"binder": "B1", "values": [{"measurement": "Trimeric HA Binding: RLU", "setting": "[1]", "result": 30, "unit": "RLU"}, {"measurement": "Trimeric HA Binding: RLU", "setting": "[2]", "result": 43, "unit": "RLU"}, {"measurement": "Trimeric HA Binding: RLU", "setting": "[3]", "result": 2920, "unit": "RLU"}, {"measurement": "Trimeric HA Binding: RLU", "setting": "[4]", "result": 970, "unit": "RLU"}, {"measurement": "Trimeric HA Binding: RLU", "setting": "[5]", "result": 348, "unit": "RLU"}, {"measurement": "Trimeric HA Binding: RLU", "setting": "[6]", "result": 791, "unit": "RLU"}, {"measurement": "Trimeric HA Binding: RLU", "setting": "[7]", "result": 175, "unit": "RLU"}, {"measurement": "Trimeric HA Binding: RLU", "setting": "[8]", "result": 160, "unit": "RLU"}, {"measurement": "Trimeric HA Binding: RLU", "setting": "[9]", "result": 934, "unit": "RLU"}, {"measurement": "Trimeric HA Binding: RLU", "setting": "[10]", "result": 192, "unit": "RLU"}, {"measurement": "Trimeric HA Binding: RLU", "setting": "[11]", "result": 1150, "unit": "RLU"}, {"measurement": "Trimeric HA Binding: RLU", "setting": "[12]", "result": 352, "unit": "RLU"}, {"measurement": "Trimeric HA Binding: RLU", "setting": "[13]", "result": 2580, "unit": "RLU"}, {"measurement": "Trimeric HA Binding: RLU", "setting": "[14]", "result": 45500, "unit": "RLU"}, {"measurement": "Trimeric HA Binding: RLU", "setting": "[15]", "result": 11000, "unit": "RLU"}]}]}
